Test results taken from patent US20090208447A1.

Molecular target: Class I MHC
Experiment: cell-based or functional assay

Row | IC50 for the inhibition of CTLs (IFN-gamma ELISPOT, MART-1 specific T cell clone KA/C5 with Mel 624 / Mel 526 target cells) | Binder
1 | 16.2 nM | soluble high affinity c50 ILT-like polypeptide dimer, Q8NHL6 25-217 (receptor, here or on the partner: additional C-terminal cysteine linked through maleimide to MAL-PEG-MAL, MW 3.4 KD) MHLPKPTLWAEPGSVITMDQPVTLRCQGGQETQEYRLYREKKTAPWITRIPQELVKKGQFPIPSITWEHAGRYRCYYGSDTSQWSASSDPLELVVTGVYIKPTLSAQPSPVVNSGGNVTLQCDSQVAFDGFILCKEGEDEHPQCLNSQPHARGSSRAIFSVGPVSPSRRWWYRCYAYDSNSPYEWSLPSDLLELDVDGC
2 | 0.7 nM | soluble high affinity c50 ILT-like polypeptide tetramer, Q8NHL6 25-217 (receptor, here or on the partner: additional C-terminal cysteine linked through maleimide to 4arm MAL-PEG, MW 20 KD) MHLPKPTLWAEPGSVITMDQPVTLRCQGGQETQEYRLYREKKTAPWITRIPQELVKKGQFPIPSITWEHAGRYRCYYGSDTSQWSASSDPLELVVTGVYIKPTLSAQPSPVVNSGGNVTLQCDSQVAFDGFILCKEGEDEHPQCLNSQPHARGSSRAIFSVGPVSPSRRWWYRCYAYDSNSPYEWSLPSDLLELDVDGC
3 | 800 nM | soluble high affinity c50 ILT-like polypeptide monomer, Q8NHL6 25-221 (receptor) MHLPKPTLWAEPGSVITMDQPVTLRCQGGQETQEYRLYREKKTAPWITRIPQELVKKGQFPIPSITWEHAGRYRCYYGSDTSQWSASSDPLELVVTGVYIKPTLSAQPSPVVNSGGNVTLQCDSQVAFDGFILCKEGEDEHPQCLNSQPHARGSSRAIFSVGPVSPSRRWWYRCYAYDSNSPYEWSLPSDLLELDVDG
